Measurements published in patent publication US7410774B1, “Compounds modulating sister chromatid separation and method for identifying same” (Boehringer Ingelheim International GmbH, priority 1999, dated 2008).

T1: Purified recombinant Scc1 with C-terminal FLAG epitope, from baculovirus-infected insect cells, unphosphorylated, Q12158
T1 chain: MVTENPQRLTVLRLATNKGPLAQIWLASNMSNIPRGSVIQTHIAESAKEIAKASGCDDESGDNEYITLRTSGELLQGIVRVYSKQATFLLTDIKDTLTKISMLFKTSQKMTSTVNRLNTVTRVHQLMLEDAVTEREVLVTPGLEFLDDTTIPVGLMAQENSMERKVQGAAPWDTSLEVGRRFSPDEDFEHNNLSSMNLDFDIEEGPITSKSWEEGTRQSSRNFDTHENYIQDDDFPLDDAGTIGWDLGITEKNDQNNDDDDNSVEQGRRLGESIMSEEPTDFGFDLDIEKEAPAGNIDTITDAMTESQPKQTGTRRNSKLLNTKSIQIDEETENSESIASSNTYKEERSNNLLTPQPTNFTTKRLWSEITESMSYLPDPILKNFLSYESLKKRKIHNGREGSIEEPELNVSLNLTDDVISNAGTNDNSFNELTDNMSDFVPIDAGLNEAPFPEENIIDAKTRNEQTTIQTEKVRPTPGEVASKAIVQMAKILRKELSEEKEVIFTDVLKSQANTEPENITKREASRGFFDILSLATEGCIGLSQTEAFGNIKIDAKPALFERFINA

T2: Purified recombinant Scc1 with C-terminal FLAG epitope, from okadaic acid treated insect cells, mitotically phosphorylated form, Q12158
T2 chain: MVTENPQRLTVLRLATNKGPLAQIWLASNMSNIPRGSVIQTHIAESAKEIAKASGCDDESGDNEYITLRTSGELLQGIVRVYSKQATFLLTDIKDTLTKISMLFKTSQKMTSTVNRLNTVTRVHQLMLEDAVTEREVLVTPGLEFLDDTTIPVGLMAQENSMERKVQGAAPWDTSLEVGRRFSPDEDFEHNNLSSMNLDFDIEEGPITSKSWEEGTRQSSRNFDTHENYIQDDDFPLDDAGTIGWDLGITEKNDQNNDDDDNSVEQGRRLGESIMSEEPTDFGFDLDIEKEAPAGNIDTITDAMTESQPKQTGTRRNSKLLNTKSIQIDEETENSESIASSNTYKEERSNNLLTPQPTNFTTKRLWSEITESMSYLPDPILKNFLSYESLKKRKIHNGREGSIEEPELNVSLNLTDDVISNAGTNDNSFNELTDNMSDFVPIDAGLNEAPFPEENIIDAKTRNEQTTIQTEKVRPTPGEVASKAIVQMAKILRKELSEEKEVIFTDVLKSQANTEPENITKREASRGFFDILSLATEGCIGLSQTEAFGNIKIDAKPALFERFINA

T3: Scc1p R180D R268D double mutant, HA tagged (non-cleavable Scc1p), Q12158
T3 chain: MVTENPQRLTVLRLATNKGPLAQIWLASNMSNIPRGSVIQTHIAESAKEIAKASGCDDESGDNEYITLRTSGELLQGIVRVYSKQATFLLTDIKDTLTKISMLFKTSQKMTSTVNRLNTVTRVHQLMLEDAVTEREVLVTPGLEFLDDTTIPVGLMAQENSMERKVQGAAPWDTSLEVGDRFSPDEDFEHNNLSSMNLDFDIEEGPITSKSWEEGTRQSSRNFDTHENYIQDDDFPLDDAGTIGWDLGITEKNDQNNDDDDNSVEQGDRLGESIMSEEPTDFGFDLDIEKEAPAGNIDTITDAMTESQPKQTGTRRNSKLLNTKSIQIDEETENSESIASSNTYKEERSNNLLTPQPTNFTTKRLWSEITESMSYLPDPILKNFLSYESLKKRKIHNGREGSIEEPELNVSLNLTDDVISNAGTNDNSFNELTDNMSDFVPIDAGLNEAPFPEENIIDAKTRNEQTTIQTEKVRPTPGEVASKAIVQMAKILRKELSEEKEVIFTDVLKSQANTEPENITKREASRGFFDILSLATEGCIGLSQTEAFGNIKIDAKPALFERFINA

T4: Scc1p tagged with multiple HA epitopes, chromatin-bound (chromatin of nocodazole-arrested yeast), Q12158
T4 chain: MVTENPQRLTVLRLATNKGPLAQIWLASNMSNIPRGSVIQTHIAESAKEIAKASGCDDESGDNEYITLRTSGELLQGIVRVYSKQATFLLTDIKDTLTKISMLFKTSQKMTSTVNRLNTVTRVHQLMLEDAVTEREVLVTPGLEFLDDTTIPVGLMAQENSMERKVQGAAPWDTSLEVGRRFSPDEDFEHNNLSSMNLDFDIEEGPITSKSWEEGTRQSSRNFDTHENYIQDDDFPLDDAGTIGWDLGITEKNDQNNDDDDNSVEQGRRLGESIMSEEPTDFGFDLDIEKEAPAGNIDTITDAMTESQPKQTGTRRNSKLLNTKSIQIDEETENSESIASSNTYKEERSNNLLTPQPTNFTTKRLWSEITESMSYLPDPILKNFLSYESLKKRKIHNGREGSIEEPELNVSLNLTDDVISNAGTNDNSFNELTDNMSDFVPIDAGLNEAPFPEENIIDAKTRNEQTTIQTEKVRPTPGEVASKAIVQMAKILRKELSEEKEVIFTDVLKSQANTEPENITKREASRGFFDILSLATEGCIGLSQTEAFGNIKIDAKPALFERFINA

T5: Scc1p tagged with myc epitopes at the C-terminus (endogenous wild type), Q12158
T5 chain: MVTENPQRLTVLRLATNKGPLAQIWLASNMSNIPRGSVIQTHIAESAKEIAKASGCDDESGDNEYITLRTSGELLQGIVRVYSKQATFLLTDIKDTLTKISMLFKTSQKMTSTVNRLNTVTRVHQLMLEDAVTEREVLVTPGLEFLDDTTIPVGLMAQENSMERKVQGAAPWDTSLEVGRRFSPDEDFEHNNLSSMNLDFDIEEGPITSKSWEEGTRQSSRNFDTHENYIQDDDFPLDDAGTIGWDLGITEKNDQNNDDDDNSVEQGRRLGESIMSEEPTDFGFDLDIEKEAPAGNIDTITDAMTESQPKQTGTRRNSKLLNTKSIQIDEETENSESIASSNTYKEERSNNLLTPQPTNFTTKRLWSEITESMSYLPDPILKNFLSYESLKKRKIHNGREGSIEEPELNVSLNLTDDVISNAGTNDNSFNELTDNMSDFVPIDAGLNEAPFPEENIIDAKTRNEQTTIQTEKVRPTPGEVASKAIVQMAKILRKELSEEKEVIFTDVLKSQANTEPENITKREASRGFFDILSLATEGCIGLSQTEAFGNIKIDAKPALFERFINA

T6: Scc1p with arginine 268 mutated to aspartic acid, HA tagged, Q12158
T6 chain: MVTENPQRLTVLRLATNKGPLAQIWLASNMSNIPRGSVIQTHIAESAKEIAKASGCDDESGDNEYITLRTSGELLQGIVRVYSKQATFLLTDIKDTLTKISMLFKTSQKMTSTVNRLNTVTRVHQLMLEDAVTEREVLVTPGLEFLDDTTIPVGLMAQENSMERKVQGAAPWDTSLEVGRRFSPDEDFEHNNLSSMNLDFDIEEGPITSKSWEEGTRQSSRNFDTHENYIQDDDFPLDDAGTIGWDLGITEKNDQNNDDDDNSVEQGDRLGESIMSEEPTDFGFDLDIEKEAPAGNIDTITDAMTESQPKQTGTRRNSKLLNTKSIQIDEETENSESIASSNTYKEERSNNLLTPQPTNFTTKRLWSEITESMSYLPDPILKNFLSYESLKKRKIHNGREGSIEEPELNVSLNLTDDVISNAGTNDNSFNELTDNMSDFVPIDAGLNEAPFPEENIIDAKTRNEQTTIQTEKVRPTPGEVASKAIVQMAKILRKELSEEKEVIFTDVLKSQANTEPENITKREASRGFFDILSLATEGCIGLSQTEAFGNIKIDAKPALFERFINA

B1: Esp1p (yeast separin), wild type, overproduced from the GAL1-10 promoter in yeast cell extract (protein)
chain: MMVKQEEPLNEISPNTPMTSKSYLLNDTLSKVHHSGQTRPLTSVLSGDASSNSIGILAMHNNIIRDFTKIASNNIDLAIEDITTVDHSLNSIYSLLKSHHMWGHINSTVKQHLMIIVKLINNNALGLASSEIIFLFNETNLFQAHSLKNILLADFSTWNDYYLSNLKILALQIILKRKLVDEYLPHILELFSHDKRYLLKDPNLKAHALTKIVLSFFSVTTSCKVLFGLKFLQYIKQFKLPFKKFISNITVECFSKNLLHKNYLEMGPNKIYLNSFYLSYSMLYDGLDKIMLLDILSYEETTEVQRAIKSKKEFNEYCNMSENRLLWSCISVDDLNVILENATNFLQNKGKHISATLKCLVCLWSTIRLEGLPKNKDILRQFDCTVIYINSNIKSINDESAAALLSELLGVLSEICIDYKEPKRLSNIISVLFNASVLFKSHSFLLKTANLEISNVLISNDSKTSHRTILKFEKFISSAQSAQKKIEIFSCLFNVYCMLRNDTLSFVFDFCQNAFIHCFTRLKITKFIEFSNSSEIMLSVLYGNSSIENIPSENWSQLSRMIFCSLRGIFDLDPLELNNTFDKLHLLNKYELLIRIVYLLNLDMSKHLTTNLSKITKLYINKWLQKSDEKAERISSFEMDFVKMLLCYLNFNNFDKLSIELSLCIKSKEKYYSSIVPYADNYLLEAYLSLYMIDDALMMKNQLQKTMNLSTAKIEQALLHASSLINVHLWDSDLTAFQIYFGKTLPAMKPELFDINNDHNLPMSLYIKVILLNIKIFNESAKLNIKAGNVISAVIDCRKAQNLALSLLKKKNKLSQGSRLALLKSLSFSFFQLIKIHIRIGSARDCEFYSKELSRIISDLEEPIIVYRCLHFLHRYYMITEQTCLQNITLGKANKAFDYLDAEADITSLTMFLYDNKEFVKLEQSLVLYFGDQLEKTFLPNLWKLHLGKDIDDSICLSEYMPKNVINRVHNMWQKVMSQLEEDPFFKGMFESTLGIPSSLPVIPSTMPNNILKTPSKHSTGLKLCDSPRSSSMTPRGKNIRQKFDRIAAISKLKQMKELLESLKLDTLDNHELSKISSLSSLTLTILSNITSIHNAESSLITNFSLTDLPRHMPLLFDKVLNNIDNKNYREFRVSSLIAPNNISTITESIRVSAAQKDLMESNLNINVITIDFCPITGNLLLSKLEPRRKRRTHLRLPLIRSNSRDLDEVHLSFPEATKKLLSIINESNQTTSVEVTNKIKTREERKSWWTTRYDLDKRMQQLLNNIENSWFNGVQGFFSPEVVDNSLFEKFKDKFYEILHQNLPSRKLYGNPAMFIKVEDWVIELFLKLNPQEIDFLSKMEDLIYFVLDILLFHGEENAYDEIDFSMLHVQLEEQIKKYRATMTTNSIFHTFLVVSSSCHLFPWECLSFLKDLSITRVPSYVCLNKLLSRFHYQLPLQVTIEDNISMILNPNGDLSRTESKFKGMFQKIIDAKPSSQLVMNEKPEEETLLKMLQNSNLFVYIGHGGGEQYVRSKEIKKCTKIAPSFLLGCSSAAMKYYGKLEPTGTIYTYLLGGCPMVLGNLWDVTDKDIDKFSEELFEKMGFRCNTDDLNGNSLSVSYAVSKSRGVCHLRYLNGAAPVIYGLPIKFVS

Columns and labels:
HeLa cells [1] = test: SCC1 cleavage and securin degradation in synchronized HeLa cells released into the cell cycle in the presence of nocodazole; assay type: cell-based, human; conditions: double-thymidine synchronized, immunoblot
Method: For cell cycle synchronization, a double-thymidine treatment was used. HeLa cells were first treated with 2 mM thymidine for 18 h. Subsequently, cells were washed with PBS, fresh medium was added and the cells were grown for another 8 h. Then the cells were treated again with 2 mM thymidine for 18 h, subsequently washed and incubated in fresh medium. Samples were taken at different time points. Samples were splitted and used for FACscan analysis and for immunoblotting. Cell extracts were made with glass-teflon potters in ice cold buffer containing 50 mM Tris pH 7.7, 100 mM NaCl, 20 mM b-glycerophosphate, 5 mM MgCl2, 1 mM NaF, 0.1-0.2% Triton X-100, 10% Glycerol, 1 mM DTT and protease inhibitors).
In some experiments logarithmically growing HeLa cells were treated with 330 nM nocodazole dissolved in 0.1% DMSO for 18 hours, or cells synchronized by double-thymidine treatment were released into nocodazole-containing medium for different periods of time. […]
HeLa cells stably expressing SCC1-myc were synchronized by double-thymidine treatment and were released into the cell cycle in the presence of either DMSO (results shown in FIGS. 11A and C) or nocodazole dissolved in DMSO (results shown in FIGS. 11B and D). […] Cells were analyzed by FACsan (FIGS. 11A and B) and by immunoblotting of whole cell extracts using the indicated antibodies (FIGS. 11C and D). […]

HeLa cells [2] = test: Association of human SCC1 with chromatin (quantitative immunoblotting of chromatin and supernatant fractions); assay type: cell-based; conditions: HeLa cells arrested in metaphase by nocodazole (56% in logarithmically growing cells)
Method: In some experiments logarithmically growing HeLa cells were treated with 330 nM nocodazole dissolved in 0.1% DMSO for 18 hours, or cells synchronized by double-thymidine treatment were released into nocodazole-containing medium for different periods of time. In control experiments 0.1% DMSO was added without nocodazole. Chromatin and supernatant fractions were prepared from HeLa cells that were either growing logarithmically (log) or were arrested in metaphase with nocodazole (noc). Proteins from equivalent aliquots of these fractions were separated by SDS-PAGE and analyzed for the presence of SCC1 by immunoblotting using radiolabeled antibodies (FIG. 8, top panel), The intensities of the SCC1 bands were quantitated (FIG. 8, bottom panel).

[3] = target: T1, Purified recombinant Scc1 with …
[4] = target: T2, Purified recombinant Scc1 with …
[5] = target: T3, Scc1p R180D R268D double mutant, HA …
[6] = target: T4, Scc1p tagged with multiple HA epitopes, …
[7] = target: T5, Scc1p tagged with myc epitopes at the …
[8] = target: T6, Scc1p with arginine 268 mutated to …

Molecule	cleavage of SCC1 (HeLa cells [1])	securin degradation (HeLa cells [1])	amount of the total cellular SCC1 associated with chromatin (HeLa cells [2])	cleavage assay using purified Scc1 (Western blot, anti-FLAG) [3]	cleavage assay using purified Scc1 (Western blot, anti-FLAG) [4]	Scc1p cleavage in Esp1-containing extracts (chromatin substrate) [5]	Scc1p cleavage and dissociation from chromatin in vitro (Western blot of chromatin and supernatant fractions) [6]	Scc1p cleavage in Esp1-containing extracts (chromatin substrate) [7]	Scc1p cleavage in the Esp1 assay (chromatin substrate) [8]
COC(=O)Nc1nc2ccc(C(=O)c3cccs3)cc2[nH]1 [nocodazole]	no cleavage of SCC1 could be observed	not degraded	13%						
B1				Both unphosphorylated and phosphorylated purified Scc1 were cleaved in an Esp1-dependent manner in vitro	the efficiency of cleavage was much greater when Scc1 was in the mitotically phosphorylated state	HA tagged double mutant protein was no longer cleaved when incubated in Esp1-containing extracts	most disappears from the chromatin fraction upon incubation with extracts containing high levels of wild type Esp1 protein	the myc tagged wild type protein was efficiently cleaved	cleavage at site 268 was indeed eliminated by the aspartic acid mutation. However, the mutated protein was still cleaved in an Esp1-dependent manner
